Where a chain is given by its changes, count along the chain named.
B1: I084A01 (scFv)
scFv: QVQLVQSGGGLVQPGGSLRLSCAASGFTFSSYEMNWVRQAPGKGLEWVSYISSSGSTTYYADSVKGRFTISRDNAKNSLYLQMNSLRAEDTAVYYCARDTTDYWGQGTMVTVSSGGGGSGGGGSGGGGSQSVLTQPPSASGTPGQRVTISCSGSSSNIGSNTVNWYQRLPGAAPQLLIYNNDQRPSGIPDRFSGSKSGTSGSLVISGLQSEDEADYYCASWDDSLNGRVFGGGTKLTVLG
B2: I084B02 (scFv)
scFv: QVQLVQSGGGLVQPGGSLRLSCAASGFTFSSYEMNWVRQAPGKGLEWVSYISSSGSTTYYADSVKGRFTISRDNAKNSLYLQMNSLRAEDTAVYYCARDTTDYWGQGTLVTVSSGGGGSGGGGSGGGGSDIVMTQSPSTLSASVGDRVTITCRASQGISSWLAWYQQKPGRAPKVLIYKASTLESGVPSRFSGSGSGTDFTLTISSLQPEDFATYYCQQSYSTPWTFGQGTKLEIKR
B3: I080A08 (scFv)
scFv: QVTLKESGGDLVQPGGSLRLSCAASGLTFMSYAMTWVRQAPGKGLEWVSSISGSGDNTYYGDSVRGRFTISRDNSKNTLFLQLNSLRAEDTAFYYCAKVHSTGYAFENWGRGTLVTVSSGGGGSGGGGSGGGGSAQSVLTQPPSVSGAPGQRVTISCTGSSSNIGAGYNVHWYQQLPGTAPRLLISSNTNRPSGVPDRFSGSKSGTSASLAITGLQAEDEADYYCQSYDSSLSGFVFGTGTKVTVLG
B4: I080G07 (scFv)
scFv: QVQLVQSGAEVKKPGASVKVSCKASGYTFTSYAMHWVRQAPGQRLEWMGWINAGNGNTKYSQKFQGRVTITRDTSASTAYMELSSLRSEDTAVYYCAREGPGYYYGMDVWGQGTMVTVSSGGGGSGGGGSGGGGSALETTLTQSPGTLSLSPGERATLSCRASQAIGSNYLAWYQQKPGQPPSLLIYGASSRATGIPDRFSASGSGTDFTLTISRLEPEDFAVYYCQQYGSSITFGQGTRLEIKR
B5: I080D03 (scFv)
scFv: QVQLVQSGAELKQPGTSVKVSCKASGYSFSSYGVTWVRQAPGQGLEWMGWVSGNRGNTQYAQKFQDRVRMTTDTSTSTAYMELRSLRPDDTAVYFCARVGIKAAAVDNFEYWGRGTTVTVSSGGGGSGGGGSGGGGSAQSVLTQPPSASGTPGQRVTITCSGSSSNIGDYYVNWYQQVSGTTPKLIIYRDDQRPSGVPDRFSGSKSGASASLAISGLRSEDEANYFCAAWDDSLREFAFGTGTKVTVLG
B6: I083G03 (scFv)
scFv: B5 scFv with A92D
B7: I080A03 (scFv)
scFv: QVQLQQSGAELKQPGTSVKVSCKASGYSFSCYDVNWVRQAPGQGLEWMGRINPNSGNTHYAQKFQDRVTMTTDTSTSTAYMELNSLRPDDTAVYFCARVGIKAAAVDNFEYWGRGTTVTVSSGGGGSGGGGSGGGGSAQSVLTQPPSASGTPGQRVTITCSGSSSNIGDYYVNWYQQVSGTTPKLIIYRDDQRPSGVPDRFSGSKSGASASLAISGLRSEDEANYFCAAWDDSLREFAFGTGTKVTVLG
B8: I080G09 (scFv)
scFv: QVQLVQSGAEVKKPGASVRVSCKSSGYTFTNYGISWVRQAPGQGLEWMGWISNNNGKTYYAQKVQGRVTMTTDTSTSTDYMELRGLRSDDTAIYYCARDNGGGTIGFDYWGQGTLVTVSSGGGGSGGGGSGGGGSAQSVLTQPPSVSGAPGQRVTISCTGSSSNIGADYDVHWYQLLPGTAPKLLIYGNTNRPSGVPDRFSGSKSGTSASLTIAGLQAEDEADYYCQSYDSSLSGSVVFGGGTKLTVLG
B9: I084C11 (scFv)
scFv: GVQLEESGAEVKKPGASVKVSCKASGYTFTGYYMHWVRQAPGQGLEWMGWINPNSGGTNYAQKFQGRVTMTRDTSISTAYMELSRLRSDDTAVYYCARGNAWGAFDIWGRSTLVTVSSGGGGSGGGGSGGGGSQSVLTQPASVSGSPGQSITISCTGTSSDVGGYNYVSWYQQHPGKAPKLMIYEGSKRPSGVSNRFSGSKSGNTASLTVSGLQAEDEADYYCSSYTTRSTRVFGGGTKLTVLG
B10: I082B08 (scFv)
scFv: QVQLVQSGAEVKKPGGSVKVSCKASAYTFTRYYMHWVRQAPGQGLEWMGIINPSGGRTSYAQKFQGRVTMTRDTSTSTVYMELSSLRSEDTAVYYCARDLGIAGTIYFDYWGKGTLVTVSSGGGGSGGGGSGGGGSQSVLTQPPSVSAAPGQKVTISCSGSTSNIGNNYVSWYQQHPGKAPKLMIYDVSKRPSGVPDRFSGSKSGNSASLDISGLQSEDEADYYCAAWDDSLSEFLFGTGTKLTVLG
B11: I079B12 (scFv)
scFv: EVQLVQSRGGVVQPGRSLRLSCAASGLTFSSYGMHWVRQAPGKGLEWVAVISYDGRNKYYADSVKGRFTTSRDNSKNTLYLQMNSLRAEDTAVYYCAKWTSSGAFDIWGRGTLVTVSSGGGGSGGGGSGGGGSDIQMTQSPSTLSASIGDRVTITCRASEGIYHWLAWYQQKPGKAPKLLIYKASSLASGAPSRFSGSGSGTDFTLTISSLQPDDFATYYCHQYSNYPLTFGGGTKLEIKR
B12: I082D07 (scFv)
scFv: B11 scFv with H222Q
B13: I080G07 (scFv)
scFv: B4 scFv
B14: I079B05 (scFv)
scFv: GVQLVESGGGLVKPGGSLRLSCATSGFRFSDYAMTWVRQAPGKGLEWVSSITGSGGGTHYAGSVRGRFTISRDNSKNTVYLQMNNLRPEDTAVYYCASFVLDYWGKGTLVTVSSGGGGSGGGGSGGGGSQSVLTQPASVSGSPGQSITISCTGTSSDVGGYNYVSWYQQHPGKAPKLMIYEGSKRPSGVSNRFSGSKSGNTASLTISGLQAEDEADYYCSSYTTRSTRVFGGGTKLTVLG
B15: I079F06 (scFv)
scFv: QVQLVESGGGLVQPGGSLRLSCAASGFTFSSYWMSWVRQAPGKGLEWVANIKQDGSEKYYVDSVKGRFTISRDNAKNSLYLQMNSLRAEDTAVYYCARDNLHAAFDIWGRGTLVTVSGGGGGSGGGGSGGGGSDIQMTQSPSTLSASIGDRVTITCRASEGIYHWLAWYQQKPGKAPKLLIYKASSLASGAPSRFSGSGSGTDFTLTISSLQPDDFATYYCQQYSNYPLTFGGGTKLEIKR
B16: I080D03 (scFv)
scFv: B5 scFv
B17: I083G03 (scFv)
scFv: B5 scFv with A92D
B18: I080A03 (scFv)
scFv: B7 scFv
B19: I080G09 (scFv)
scFv: B8 scFv

Target: T1, HIS-tagged B Lymphocyte Stimulator (human, UniProt Q9Y275 71-285)
T1 construct: Expressed in E. coli; also called HIS-B Lymphocyte Stimulator; histidine-tagged B Lymphocyte Stimulator; not shown: histidine tag from the pQE9 vector
Experiment: BIAcore, periplasmic scFv over high density HIS-BLyS surface
Description: (§1) All BIAcore analysis was performed on BIAcore 2000 machines, using the BIAcore 2000 control software and evaluated using the BIAevaluation 3.0 software. A high density His-tagged B Lymphocyte Stimulator surface (>1000 RU HIS-B Lymphocyte Stimulator coupled) was prepared in flow cell 2 by amine coupling to a CM5 chip. A new CM5 chip was inserted into the BIAcore and a sensorgram started over flow cell 2 with HBS buffer at a flow rate of 5 μl/min. The NHS and EDC solution were mixed 1:1 before injecting 30 μl over the CM5 surface. Fifty μl HIS-B Lymphocyte Stimulator (at 10 μg/ml in Sodium acetate buffer, pH4) was injected and allowed to couple to the surface. Thirty μl of ethanolamine-HCl solution was then injected to block free NHS esters. Prior to using the chip, 10 μl of 4M Guanidine hydrochloride in HBS was injected over the surface to strip the surface of non-covalently bound B Lymphocyte Stimulator. A blank surface (no HIS-B Lymphocyte Stimulator) was also prepared over flow cell 1 so that non-specific binding effects can be subtracted from the HIS-B Lymphocyte Stimulator binding curves.
(§2) The 96-well plate containing periplasmic scFvs was secured inside the BIAcore. Two ml of 4M Guanidine hydrochloride in HBS was placed in a rack inside the BIAcore for regeneration of the HIS-B Lymphocyte Stimulator surface between samples. The sensorgram was run over flow cells 1 and 2 at a flow rate of […].
T1 sequence (Q9Y275 71-285): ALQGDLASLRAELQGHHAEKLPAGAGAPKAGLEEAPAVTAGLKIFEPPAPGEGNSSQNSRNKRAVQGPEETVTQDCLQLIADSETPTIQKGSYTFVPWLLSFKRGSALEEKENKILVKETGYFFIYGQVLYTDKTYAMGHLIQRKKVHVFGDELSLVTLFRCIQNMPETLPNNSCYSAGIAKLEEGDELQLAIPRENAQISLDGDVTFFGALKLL

Row | binding result | Binder
1 | binds | B1
2 | binds | B2
3 | binds | B3
4 | binds | B4
5 | binds | B5
6 | binds | B6
7 | binds | B7
8 | binds | B8
9 | binds | B9
10 | binds | B10

Target: T2, HIS-tagged B Lymphocyte Stimulator (human, UniProt Q9Y275 71-285)
T2 construct: Expressed in E. coli from pQE9 and purified; also called histidine-tagged B Lymphocyte Stimulator; HIS-B Lymphocyte Stimulator; not shown: histidine tag of the pQE9 vector
Experiment: BIAcore, periplasmic scFv on high density HIS-BLyS surface
Description: as §1, §2
T2 sequence (Q9Y275 71-285): as above

Row | binding result | Binder
11 | binds | B11
12 | binds | B12
13 | binds | B13
14 | binds | B14
15 | binds | B15
16 | binds | B16
17 | binds | B17
18 | binds | B18
19 | binds | B19
